In assay [1] the target is SARS-CoV-2 Omicron BA.1 RBD, yeast-displayed (SARS-CoV-2, UniProt P0DTC2). The experiment in a line: flow cytometry on cells. The following applies: one partner purified. For orientation: Flow cytometry measures light scatter and fluorescence of single cells or particles in a stream.
Assay [2] deals with SARS-CoV-2 Omicron BA.2 RBD, yeast-displayed (SARS-CoV-2, UniProt P0DTC2). In words: flow cytometry on cells. The note with it: one partner purified.

The values that follow come from publication PMC9409550 (PLoS ONE, 2022).

B1: CDY14HL-Fc1 (Fc fusion)
chain: QSTIEEQAKTFLDMFNHKAEDLFYQSSLAAWNYNTNITEENVQNMNNAGDKWSAFLKEQSTFAQMYPLQEIQNPTVKLQLQALQQNGSSVLSEDKSKRLNTILNTMSTIYSTGKVCNPDNPQECLLLEPGLNEIMANSLDYNERLWAWESWRSEVGKQLRPLYEEYVVLKNEMARANHYEDYGDYWRGDYEVNGVDGYDYSRGQLIEDVEHTFEEIKPLYEHLHAYVRAKLMNAYPSYISPIGCLPAHLLGDMWGRFWTNLYSLTVPFGQKPNIDVTDAMVDQAWDAQRIFKEAEKFFVSVGLPNMTQGFWEYSMLTDPGNVQKAVCLPTAWDLGKGDFRILMCTKVTMDDFLTAHHEMGHIQYDMAYAAQPFLLRNGANEGFHEAVGEIMSLSAATPKHLKSIGLLSPDFQEDNETEINFLLKQALTIVGTLPFTYMLEKWRWMVFKGEIPKDQWMKKWWEMKREIVGVVEPVPHDETYCDPASLFHVSNDYSFIRYYTRTLYQFQFQEALCQAAKHEGPLHKCDISNSTEAGQKLFNMLRLGKSEPWTLALENVVGAKNMNVRPLLNYFEPLFTWLKDQNKNSFVGWSTDWSPYAD
Turning to B1, the Kd in assay [1] came to 31 pM; in assay [2], 24 pM.

In general, Kd refers to a measure of binding affinity in units of concentration.
